From patent US20140087995A1 (published 2014) come the findings set out here.

The target of experiment [1] is T1, human amylin receptor (amylin 3(a) receptor: human calcitonin receptor with RAMP-3) (human, UniProt P30988 25-474; O60896 24-148).
T1 construct: whole, on cells; Assay used cell membranes of the Amylin 3(a)/CRE-luc BHK cells, not intact cells; also called hAmylin-R; hAmylinR
T1 sequence (looked up) 1: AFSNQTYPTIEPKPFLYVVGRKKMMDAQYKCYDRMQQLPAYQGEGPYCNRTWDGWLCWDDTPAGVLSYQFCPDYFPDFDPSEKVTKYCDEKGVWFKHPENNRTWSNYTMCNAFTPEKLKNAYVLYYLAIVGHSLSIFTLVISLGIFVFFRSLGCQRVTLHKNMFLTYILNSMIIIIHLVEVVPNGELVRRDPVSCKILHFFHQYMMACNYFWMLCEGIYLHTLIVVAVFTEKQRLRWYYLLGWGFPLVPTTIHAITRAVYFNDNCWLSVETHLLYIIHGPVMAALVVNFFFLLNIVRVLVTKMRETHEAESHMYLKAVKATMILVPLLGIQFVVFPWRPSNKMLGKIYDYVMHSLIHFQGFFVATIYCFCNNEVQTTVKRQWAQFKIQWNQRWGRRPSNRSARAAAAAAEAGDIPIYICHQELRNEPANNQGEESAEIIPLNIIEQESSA
T1 sequence (looked up) 2: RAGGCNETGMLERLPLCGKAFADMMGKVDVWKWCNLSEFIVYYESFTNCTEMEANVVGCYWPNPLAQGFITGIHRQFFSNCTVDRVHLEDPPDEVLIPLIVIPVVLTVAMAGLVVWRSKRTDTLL
Put plainly: SPA competition with 125I-rat amylin on membranes of BHK cells with human calcitonin receptor and RAMP-3 (Assay V). As to the method: The binding assay was performed using scintillation proximity assay (SPA) beads (RPNQ0001) from PerkinElmer and cell membranes from the Amylin 3(a)/CRE-luc cells (as described in Assay (II)) were used. Membranes were prepared in the following way; the cells were rinsed with PBS and incubated with Versene for approximately 5 min before harvesting. The cells were flushed with PBS and the cell-suspension was centrifuged for 5 min at 1000 rpm. Cells were homogenized (ultrathurrax) in a buffer containing 20 mM Na-HEPES and 10 mM EDTA (pH 7.4) and centrifuged at 20.000 rpm for 15 min. The resulting pellet was resuspended, homogenized and centrifuged (20.000 rpm, 15 min) in a buffer containing 20 mM Na-HEPES and 0.1 mM EDTA (pH 7.4, buffer 2). The resulting pellet was resuspended in buffer 2 and protein concentration was measured (BCA protein Assay, Pierce). The homogenate was kept cold during the whole procedure. The membranes were kept at −80° C. until use. The assay was performed in a 384 well Optiplate (PerkinElmer) in a total volume of 40 ul. Membranes were mixed with SPA beads. Final concentration of membranes 35 ng/μL final and SPA beads was 0.05 mg/well. Test-compounds were dissolved in DMSO and further diluted in assay buffer (50 mM Hepes, pH 7.4, 1 mM CaCl2, 5 mM MgCl₂, 0.1% OA and 0.02% Tween20). […] The final mixture was incubated with shaking at 400 rpm for 120 min at 25° C. prior to centrifugation (1500 rpm, 10 min). Samples were analyzed on TopCounter™ (Packard). The IC₅₀ was calculated using (one site binding competition analysis) GraphPad Prism5 as a measure of receptor affinity.

In experiment [2] the target is T2, human calcitonin receptor (human, UniProt P30988 25-474).
T2 construct: whole, on cells; Assay used cell membranes, not intact cells; also called hCTR; hCT
T2 sequence (looked up): T1 sequence (looked up) 1
Put plainly: SPA competition with 125I-calcitonin on membranes of BHK cells with human calcitonin receptor (Assay VII). As to the method:
Membranes were prepared in the following way; the cells were rinsed with PBS and incubated with Versene for approximately 5 min before harvesting. The cells were flushed with PBS and the cell-suspension was centrifuged for 5 min at 1000 rpm. Cells were homogenized (Ultrathurrax) in a buffer containing 20 mM Na-HEPES and 10 mM EDTA (pH 7.4) and centrifuged at 20.000 rpm for 15 min. The resulting pellet was resuspended, homogenized and centrifuged (20.000 rpm, 15 min) in a buffer containing 20 mM Na-HEPES and 0.1 mM EDTA (pH 7.4, buffer 2). The resulting pellet was resuspended in buffer 2 and protein concentration was measured (BCA protein Assay, Pierce). The homogenate was kept cold during the whole procedure. The membranes were kept at −80° C. until use. Assay was performed in a 384 well Optiplate (PerkinElmer) in a total volume of 40 ul. Membranes were mixed with SPA beads. Final concentration of membranes 35 ng/μL final and Final concentration of SPA beads was 0.05 mg/well. Test-compounds were dissolved in DMSO and further diluted in assay buffer (50 mM Hepes, pH 7.4, 1 mM CaCl2, 5 mM MgCl₂, 0.1% OA and 0.02% Tween20). […] The final mixture was incubated for 120 min with shaking at 400 rpm at 25° C. prior to centrifugation (1500 rpm, 10 min). Samples were analyzed on TopCounter™ (Packard). The […] was calculated using (one site binding competition analysis) GraphPad Prism5 as a measure of receptor affinity.

Experiment [3] addresses T2, human calcitonin receptor. As to the kind of experiment: ratio IC50 hCTR / IC50 hAmylin-R (reference: human amylin receptor), SPA competition assays. As to the method:
The resulting pellet was resuspended, homogenized and centrifuged (20.000 rpm, 15 min) in a buffer containing 20 mM Na-HEPES and 0.1 mM EDTA (pH 7.4, buffer 2). The resulting pellet was resuspended in buffer 2 and protein concentration was measured (BCA protein Assay, Pierce). The homogenate was kept cold during the whole procedure. The membranes were kept at −80° C. until use. The assay was performed in a 384 well Optiplate (PerkinElmer) in a total volume of 40 ul. Membranes were mixed with SPA beads. Final concentration of membranes 35 ng/μL final and SPA beads was 0.05 mg/well. Test-compounds were dissolved in DMSO and further diluted in assay buffer (50 mM Hepes, pH 7.4, 1 mM CaCl2, 5 mM MgCl₂, 0.1% OA and 0.02% Tween20). […] The final mixture was incubated with shaking at 400 rpm for 120 min at 25° C. prior to centrifugation (1500 rpm, 10 min). Samples were analyzed on TopCounter™ (Packard). The IC₅₀ was calculated using (one site binding competition analysis) GraphPad Prism5 as a measure of receptor affinity.
Membranes were prepared in the following way; the cells were rinsed with PBS and incubated with Versene for approximately 5 min before harvesting. The cells were flushed with PBS and the cell-suspension was centrifuged for 5 min at 1000 rpm. Cells were homogenized (Ultrathurrax) in a buffer containing 20 mM Na-HEPES and 10 mM EDTA (pH 7.4) and centrifuged at 20.000 rpm for 15 min. The resulting pellet was resuspended, homogenized and centrifuged (20.000 rpm, 15 min) in a buffer containing 20 mM Na-HEPES and 0.1 mM EDTA (pH 7.4, buffer 2). The resulting pellet was resuspended in buffer 2 and protein concentration was measured (BCA protein Assay, Pierce). The homogenate was kept cold during the whole procedure. The membranes were kept at −80° C. until use. Assay was performed in a 384 well Optiplate (PerkinElmer) in a total volume of 40 ul. Membranes were mixed with SPA beads.

Numbered stars: 1 amine (or outer) side, 2 acyl side, 3 side chain; on linkers, the order of the positions; unused ones are H or OH. Bridge positions count the residues as written; N and C are the ends. Side chains are listed from the residue outwards. Ends that are not written are not given here. * marks the point of attachment. C20 diacid = O=C(O)CCCCCCCCCCCCCCCCCCC(=O)*; γGlu = O=C(O)[C@H](CCC(=O)[*:2])N[*:1]; AEEA = NCCOCCOCC(=O)O

For orientation: IC50 means the midpoint of a concentration-inhibition curve.

B1: N^ε1-[2-[2-[2-[[2-[2-[2-[[(4S)-4-carboxy-4-(19-carboxynonadecanoylamino)butanoyl]amino]ethoxy]ethoxy]acetyl]amino]ethoxy]ethoxy]acetyl]-[Arg17,Pro21,Pro27,Pro31 … (peptide)
peptide: K([AEEA-AEEA-γGlu-C20 diacid])CNTATCATQRLANFLRHSSPNFGAIPSSTPVGSNTY-NH2
modifications: disulfide 2-7; N-terminus assumed
SMILES: CC[C@H](C)[C@H](NC(=O)[C@H](C)NC(=O)CNC(=O)[C@H](Cc1ccccc1)NC(=O)[C@H](CC(N)=O)NC(=O)[C@@H]1CCCN1C(=O)[C@H](CO)NC(=O)[C@H](CO)NC(=O)[C@H](Cc1c[nH]cn1)NC(=O)[C@H](CCCNC(=N)N)NC(=O)[C@H](CC(C)C)NC(=O)[C@H](Cc1ccccc1)NC(=O)[C@H](CC(N)=O)NC(=O)[C@H](C)NC(=O)[C@H](CC(C)C)NC(=O)[C@H](CCCNC(=N)N)NC(=O)[C@H](CCC(N)=O)NC(=O)[C@@H](NC(=O)[C@H](C)NC(=O)[C@@H]1CSSC[C@H](NC(=O)[C@@H](N)CCCCNC(=O)COCCOCCNC(=O)COCCOCCNC(=O)CC[C@H](NC(=O)CCCCCCCCCCCCCCCCCCC(=O)O)C(=O)O)C(=O)N[C@@H](CC(N)=O)C(=O)N[C@@H]([C@@H](C)O)C(=O)N[C@@H](C)C(=O)N[C@@H]([C@@H](C)O)C(=O)N1)[C@@H](C)O)C(=O)N1CCC[C@H]1C(=O)N[C@@H](CO)C(=O)N[C@@H](CO)C(=O)N[C@H](C(=O)N1CCC[C@H]1C(=O)N[C@H](C(=O)NCC(=O)N[C@@H](CO)C(=O)N[C@@H](CC(N)=O)C(=O)N[C@H](C(=O)N[C@@H](Cc1ccc(O)cc1)C(N)=O)[C@@H](C)O)C(C)C)[C@@H](C)O
notes: also called compound 96
B1: the IC50 was found to be 0.166 nM in experiment [1] and 13.2 nM in experiment [2]. The “Ratio hCT/hAmylin binding” value in experiment [3] amounted to 79.6.

B2: N^ε1-[2-[2-[2-[[(4S)-4-carboxy-4-(19-carboxynonadecanoylamino)butanoyl]amino]ethoxy]ethoxy]acetyl]-[Arg14,Arg17,Pro21,Pro27]-h-amylin (peptide)
peptide: K([AEEA-γGlu-C20 diacid])CNTATCATQRLARFLRHSSPNFGAIPSSTNVGSNTY-NH2
modifications: disulfide 2-7; N-terminus assumed
SMILES: CC[C@H](C)[C@H](NC(=O)[C@H](C)NC(=O)CNC(=O)[C@H](Cc1ccccc1)NC(=O)[C@H](CC(N)=O)NC(=O)[C@@H]1CCCN1C(=O)[C@H](CO)NC(=O)[C@H](CO)NC(=O)[C@H](Cc1c[nH]cn1)NC(=O)[C@H](CCCNC(=N)N)NC(=O)[C@H](CC(C)C)NC(=O)[C@H](Cc1ccccc1)NC(=O)[C@H](CCCNC(=N)N)NC(=O)[C@H](C)NC(=O)[C@H](CC(C)C)NC(=O)[C@H](CCCNC(=N)N)NC(=O)[C@H](CCC(N)=O)NC(=O)[C@@H](NC(=O)[C@H](C)NC(=O)[C@@H]1CSSC[C@H](NC(=O)[C@@H](N)CCCCNC(=O)COCCOCCNC(=O)CC[C@H](NC(=O)CCCCCCCCCCCCCCCCCCC(=O)O)C(=O)O)C(=O)N[C@@H](CC(N)=O)C(=O)N[C@@H]([C@@H](C)O)C(=O)N[C@@H](C)C(=O)N[C@@H]([C@@H](C)O)C(=O)N1)[C@@H](C)O)C(=O)N1CCC[C@H]1C(=O)N[C@@H](CO)C(=O)N[C@@H](CO)C(=O)N[C@H](C(=O)N[C@@H](CC(N)=O)C(=O)N[C@H](C(=O)NCC(=O)N[C@@H](CO)C(=O)N[C@@H](CC(N)=O)C(=O)N[C@H](C(=O)N[C@@H](Cc1ccc(O)cc1)C(N)=O)[C@@H](C)O)C(C)C)[C@@H](C)O
notes: also called compound 82
Take B2: the IC50 in experiment [1] is 0.636 nM; in experiment [2], 88.8 nM. For the same molecule, in experiment [3], the “Ratio hCT/hAmylin binding” value is 140.

B3: N^ε1-[2-[2-[2-[[(4S)-4-carboxy-4-(19-carboxynonadecanoylamino)butanoyl]amino]ethoxy]ethoxy]acetyl]-[Arg17,Pro21,Pro27,Arg34]-h-amylin (peptide)
peptide: K([AEEA-γGlu-C20 diacid])CNTATCATQRLANFLRHSSPNFGAIPSSTNVGRNTY-NH2
modifications: disulfide 2-7; N-terminus assumed
SMILES: CC[C@H](C)[C@H](NC(=O)[C@H](C)NC(=O)CNC(=O)[C@H](Cc1ccccc1)NC(=O)[C@H](CC(N)=O)NC(=O)[C@@H]1CCCN1C(=O)[C@H](CO)NC(=O)[C@H](CO)NC(=O)[C@H](Cc1c[nH]cn1)NC(=O)[C@H](CCCNC(=N)N)NC(=O)[C@H](CC(C)C)NC(=O)[C@H](Cc1ccccc1)NC(=O)[C@H](CC(N)=O)NC(=O)[C@H](C)NC(=O)[C@H](CC(C)C)NC(=O)[C@H](CCCNC(=N)N)NC(=O)[C@H](CCC(N)=O)NC(=O)[C@@H](NC(=O)[C@H](C)NC(=O)[C@@H]1CSSC[C@H](NC(=O)[C@@H](N)CCCCNC(=O)COCCOCCNC(=O)CC[C@H](NC(=O)CCCCCCCCCCCCCCCCCCC(=O)O)C(=O)O)C(=O)N[C@@H](CC(N)=O)C(=O)N[C@@H]([C@@H](C)O)C(=O)N[C@@H](C)C(=O)N[C@@H]([C@@H](C)O)C(=O)N1)[C@@H](C)O)C(=O)N1CCC[C@H]1C(=O)N[C@@H](CO)C(=O)N[C@@H](CO)C(=O)N[C@H](C(=O)N[C@@H](CC(N)=O)C(=O)N[C@H](C(=O)NCC(=O)N[C@@H](CCCNC(=N)N)C(=O)N[C@@H](CC(N)=O)C(=O)N[C@H](C(=O)N[C@@H](Cc1ccc(O)cc1)C(N)=O)[C@@H](C)O)C(C)C)[C@@H](C)O
notes: also called compound 78
On to B3, for which the IC50 in experiment [1] worked out at 0.602 nM; in experiment [2], 36.5 nM. The “Ratio hCT/hAmylin binding” value in experiment [3] is 60.7.
